This assay has as its target T1, human p53 protein, full length (human, UniProt P04637 1-393).
T1 construct: range 1-393; it is not clear whether that entry is whole p53 or the peptide, so it is not used here
As to the kind of experiment: yeast two-hybrid, lexA-responsive β-galactosidase reporter; (+) colonies turned blue following 24 hours (strain 4).

T1 sequence (P04637 whole entry): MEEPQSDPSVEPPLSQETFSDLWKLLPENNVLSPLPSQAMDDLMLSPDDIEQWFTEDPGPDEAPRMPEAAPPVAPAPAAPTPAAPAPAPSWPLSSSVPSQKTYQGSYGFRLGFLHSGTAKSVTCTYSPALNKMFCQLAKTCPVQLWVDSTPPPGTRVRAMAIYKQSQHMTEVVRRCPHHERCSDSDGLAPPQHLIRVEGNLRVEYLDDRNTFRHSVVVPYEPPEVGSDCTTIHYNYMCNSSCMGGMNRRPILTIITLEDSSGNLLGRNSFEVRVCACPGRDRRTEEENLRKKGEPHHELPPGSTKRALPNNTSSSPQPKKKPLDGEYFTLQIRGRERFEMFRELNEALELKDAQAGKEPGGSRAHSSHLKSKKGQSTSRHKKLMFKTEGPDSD

B1: lexA-MDM2 (1-118) (other, not shown: small tags and cut ends)
chain: MCNTNMSVPTDGAVTTSQIPASEQETLVRPKPLLLKLLKSVGAQKDTYTMKEVLFYLGQYIMTKRLYDEKQQHIVYCSNDLLGDLFGVPSFSVKEHRKIYTMIYRNLVVVNQQESSDS
notes: Genetically engineered clone, expressed in yeast; also called MDM2 codons 1 to 118 fused to lexA
In the case of B1, the binding result is given as “binds”.

For the origin of these results see US7402570 (Johns Hopkins, dated 2008).
